Assay [1] has as its target Tau (endogenous, primary neurons) (UniProt P19332). Nature of the assay: proximity ligation assay, high-content screen. Particulars: reference: DMSO-treated neurons; sites T348.
In assay [2] the target is BIN1 (endogenous, primary neurons) (UniProt O08839). Nature of the assay: proximity ligation assay, high-content screen. Particulars: reference: DMSO-treated neurons; sites T231.
The target in assay [3] is Tau (endogenous, rat primary hippocampal neurons) (rat (endogenous in primary hippocampal neurons)) (UniProt P19332). Nature of the assay: proximity ligation; PLA in fixed rat primary hippocampal neuronal cultures (DIV7, 14, 21; lentiviral shBIN1 or overexpression at DIV8, read at DIV14; compound screen incl. Cyclosporin A and U0126 at DIV21); primary antibodies BIN1-99D (mouse) and Tau (rabbit); PLA volume or PLA:Tau ratio.

Consider three substances from PMC6778065.

Sequence of BIN1iso1 phosphomimetic T348E, overexpressed in primary neurons (O08539 whole entry, stated change not applied): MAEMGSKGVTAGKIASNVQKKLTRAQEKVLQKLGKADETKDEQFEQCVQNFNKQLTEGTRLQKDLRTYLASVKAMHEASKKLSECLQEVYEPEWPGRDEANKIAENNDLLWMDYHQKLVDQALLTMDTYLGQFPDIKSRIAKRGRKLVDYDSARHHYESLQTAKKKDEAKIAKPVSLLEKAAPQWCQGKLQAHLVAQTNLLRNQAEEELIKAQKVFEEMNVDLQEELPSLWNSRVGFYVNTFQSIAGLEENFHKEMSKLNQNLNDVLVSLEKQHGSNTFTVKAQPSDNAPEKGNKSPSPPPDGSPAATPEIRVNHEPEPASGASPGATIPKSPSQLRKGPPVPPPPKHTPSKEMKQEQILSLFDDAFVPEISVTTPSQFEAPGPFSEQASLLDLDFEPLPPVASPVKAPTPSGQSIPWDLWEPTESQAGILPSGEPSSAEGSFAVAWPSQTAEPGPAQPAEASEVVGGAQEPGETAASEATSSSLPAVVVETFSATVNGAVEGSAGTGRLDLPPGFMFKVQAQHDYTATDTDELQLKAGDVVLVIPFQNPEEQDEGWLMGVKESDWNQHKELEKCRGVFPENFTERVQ
Sequence of Tau (endogenous, rat primary hippocampal neurons) (rat (endogenous in primary hippocampal neurons)) (P19332 other isoform, or with tags, fused parts or gaps): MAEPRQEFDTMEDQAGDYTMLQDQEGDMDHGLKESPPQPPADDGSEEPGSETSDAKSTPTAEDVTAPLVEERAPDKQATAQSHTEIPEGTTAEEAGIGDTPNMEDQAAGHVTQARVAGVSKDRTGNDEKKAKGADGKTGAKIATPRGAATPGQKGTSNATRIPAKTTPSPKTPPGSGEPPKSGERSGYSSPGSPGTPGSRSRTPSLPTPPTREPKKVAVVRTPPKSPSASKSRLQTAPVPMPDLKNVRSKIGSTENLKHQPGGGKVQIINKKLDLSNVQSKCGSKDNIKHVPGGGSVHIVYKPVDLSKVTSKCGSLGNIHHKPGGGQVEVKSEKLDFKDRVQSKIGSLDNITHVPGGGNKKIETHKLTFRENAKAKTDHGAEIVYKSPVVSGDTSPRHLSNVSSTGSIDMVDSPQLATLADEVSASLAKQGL

Consider “BIN1 (endogenous, primary neurons) (from UniProt O08839) Cyclosporin A-treated neurons (calcineurin inhibitor)”, for which, in assay [1], the other: percent increase of PLA:Tau ratio was determined as 42.6%.
Consider “Tau (endogenous, primary neurons) (from UniProt P19332) U0126-treated neurons (MEK inhibitor)”, for which the other: percent decrease of PLA:Tau ratio in assay [2] is 36.2%.
With “BIN1iso1 phosphomimetic T348E, overexpressed in primary neurons (from UniProt O08539-1 1-588) (natural protein)”, in assay [3], the fold PLA volume against BIN1iso1 (after normalization with BIN1 immunofluorescence) was 2.1 fold.
